Source: PMC12632274, “The PA2803-encoded PcrP exhibits a novel non-catalytic function and contributes to polymyxin B resistance in P. aeruginosa” (Journal of Bacteriology, 2025)

Target: the molecule itself
Assay: cross-linking; 50 µM purified PcrP with 0.02, 0.05, 0.1 and 0.2% glutaraldehyde, 2 min, 20 mM HEPES pH 7.8, 50 mM NaCl, 1% glycerol; stopped with Tris-HCl; 12% SDS-PAGE, Coomassie

B1: 6xHis-PcrP (PA2803), recombinant, purified from E. coli (natural protein)
chain: MPSSDQLPRFTALLFGLSGGLVDFGARTLSLALLRSHPHSPAEHLRDASLLPFAEAQSFLLRRKPNKSERQRLEQALDEAAGEQAEAIAGAVALLESLDEQRIPYAWQDELPESVCQRLAAPLGRANALIPLAGARPWPAPDGCWQALARLGIERLDGCVLVSAQPRQLQAGLNAGLWTIGLAASGPSCGLSPADWDALGHTERDRLRADATLELYRLGVHSVIDHLGELQPCLHDLAVRRLKGEKP
notes: PcrP (PA2803), Pseudomonas aeruginosa PAO1; cloned NdeI/EcoRI into pSKB3; No removal of the His tag is described; also called 6XHis-PA2803; pAAK001 construct; source: E. coli BL21(DE3), purified (Ni-NTA)
  stoichiometry N: 2
